The target of assay [1] is T1, human B7-H2, full length, expressed on cells (B7-H2+293T cells) (human, UniProt O75144 19-302).
T1 construct: This id also stands for endogenous B7-H2 on monocyte-derived dendritic cells in the functional rows; also called ICOSL; ICOSLG
T1 sequence: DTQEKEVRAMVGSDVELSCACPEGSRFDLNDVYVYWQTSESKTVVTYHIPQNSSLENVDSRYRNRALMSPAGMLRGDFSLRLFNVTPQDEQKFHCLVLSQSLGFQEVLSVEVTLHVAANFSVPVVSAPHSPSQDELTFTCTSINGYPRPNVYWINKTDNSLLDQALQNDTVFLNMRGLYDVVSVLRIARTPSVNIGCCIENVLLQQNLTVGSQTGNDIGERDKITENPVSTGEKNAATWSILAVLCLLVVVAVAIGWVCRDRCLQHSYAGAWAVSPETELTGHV
Description: flow cytometry on 293T cells transfected with full length human B7-H2; B7-2Ig alone. For orientation: A flow cytometer gives signals particle by particle.

Assay [2] addresses T2, human B7-2 (CD86, B70) expressed on 293T cells (human, UniProt P42081 24-329).
T2 construct: whole, on cells
T2 sequence (looked up): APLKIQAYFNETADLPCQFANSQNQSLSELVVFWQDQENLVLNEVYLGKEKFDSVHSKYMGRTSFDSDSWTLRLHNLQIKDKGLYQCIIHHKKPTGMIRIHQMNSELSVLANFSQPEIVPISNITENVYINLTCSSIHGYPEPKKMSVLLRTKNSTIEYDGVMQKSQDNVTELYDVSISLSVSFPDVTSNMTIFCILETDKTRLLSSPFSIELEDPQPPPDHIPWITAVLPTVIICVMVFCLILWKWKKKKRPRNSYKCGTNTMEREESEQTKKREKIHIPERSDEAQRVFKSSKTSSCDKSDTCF
Kind of assay: CDS well image, 293T cells transfected with the human gene, stained with the human fusion protein.

Assay [3] deals with T3, human B7-H1 expressed on 293T cells (human, UniProt Q9NZQ7 19-290).
T3 construct: whole, on cells
The description is as above.

Assay [4] concerns the target T4, human B7-DC expressed on 293T cells (human, UniProt Q9BQ51 20-273).
T4 construct: whole, on cells
T4 sequence (looked up): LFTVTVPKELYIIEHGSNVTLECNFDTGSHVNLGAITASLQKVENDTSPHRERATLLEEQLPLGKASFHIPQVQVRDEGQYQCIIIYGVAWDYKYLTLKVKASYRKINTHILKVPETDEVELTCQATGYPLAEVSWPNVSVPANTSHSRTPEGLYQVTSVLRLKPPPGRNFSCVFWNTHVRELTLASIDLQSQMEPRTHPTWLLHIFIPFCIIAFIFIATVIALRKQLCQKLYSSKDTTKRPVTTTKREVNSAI
The assay is described as above.

Assay [5] has as its target T5, human B7-1 (CD80) expressed on 293T cells (human, UniProt P33681 35-288).
T5 construct: whole, on cells
T5 sequence (looked up): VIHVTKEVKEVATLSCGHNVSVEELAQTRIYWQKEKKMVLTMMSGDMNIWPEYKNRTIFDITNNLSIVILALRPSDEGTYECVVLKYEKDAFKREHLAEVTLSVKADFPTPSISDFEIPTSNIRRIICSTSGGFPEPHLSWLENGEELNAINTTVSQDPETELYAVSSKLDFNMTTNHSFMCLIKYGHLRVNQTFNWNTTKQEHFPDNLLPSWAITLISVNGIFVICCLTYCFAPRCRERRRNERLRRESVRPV
Described as above.

The target in assay [6] is T5, human B7-1 (CD80) expressed on 293T …. Kind of assay: flow cytometry on 293T cells transfected with B7-1.
The target in assay [7] is T2, human B7-2 (CD86, B70) expressed on …. Kind of assay: flow cytometry on 293T cells transfected with B7-2.
Assay [8] concerns the target T4, human B7-DC expressed on 293T cells. Description: flow cytometry on 293T cells transfected with B7-DC.
Assay [9] addresses T3, human B7-H1 expressed on 293T cells. Kind of assay: flow cytometry on 293T cells transfected with B7-H1.
Assay [10] concerns the target T1, human B7-H2, full length, expressed on …. Description: flow cytometry on 293T cells transfected with B7-H2.
The target in assay [11] is T6, human B7-H4 expressed on 293T cells (human, UniProt Q7Z7D3 25-282).
T6 construct: whole, on cells
T6 sequence (looked up): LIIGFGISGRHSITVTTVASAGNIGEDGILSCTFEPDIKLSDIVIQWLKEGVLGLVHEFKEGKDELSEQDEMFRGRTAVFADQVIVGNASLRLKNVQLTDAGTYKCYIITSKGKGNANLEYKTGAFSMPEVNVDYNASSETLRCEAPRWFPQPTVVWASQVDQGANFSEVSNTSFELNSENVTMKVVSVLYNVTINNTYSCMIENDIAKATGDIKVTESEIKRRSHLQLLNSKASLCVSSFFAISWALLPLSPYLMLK
Description: flow cytometry on 293T cells transfected with B7-H4.

Assay [12] concerns the target T7, human B7-H3, 2Ig form, expressed on 293T cells (human, UniProt Q5ZPR3-2 29-316).
T7 construct: whole, on cells
T7 sequence (looked up): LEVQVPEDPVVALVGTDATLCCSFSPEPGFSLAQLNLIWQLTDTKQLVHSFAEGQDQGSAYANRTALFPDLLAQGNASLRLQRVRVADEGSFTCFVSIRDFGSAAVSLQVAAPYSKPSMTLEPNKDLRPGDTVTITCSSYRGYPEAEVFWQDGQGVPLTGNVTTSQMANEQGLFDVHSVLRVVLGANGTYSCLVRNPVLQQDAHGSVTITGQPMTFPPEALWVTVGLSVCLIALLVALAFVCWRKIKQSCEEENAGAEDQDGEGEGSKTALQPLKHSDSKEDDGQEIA
Description: flow cytometry on 293T cells transfected with B7-H3 (2Ig).

Assay [13] deals with T8, human B7-H3, 4Ig form, expressed on 293T cells (human, UniProt Q5ZPR3 29-534).
T8 construct: whole, on cells
T8 sequence (looked up): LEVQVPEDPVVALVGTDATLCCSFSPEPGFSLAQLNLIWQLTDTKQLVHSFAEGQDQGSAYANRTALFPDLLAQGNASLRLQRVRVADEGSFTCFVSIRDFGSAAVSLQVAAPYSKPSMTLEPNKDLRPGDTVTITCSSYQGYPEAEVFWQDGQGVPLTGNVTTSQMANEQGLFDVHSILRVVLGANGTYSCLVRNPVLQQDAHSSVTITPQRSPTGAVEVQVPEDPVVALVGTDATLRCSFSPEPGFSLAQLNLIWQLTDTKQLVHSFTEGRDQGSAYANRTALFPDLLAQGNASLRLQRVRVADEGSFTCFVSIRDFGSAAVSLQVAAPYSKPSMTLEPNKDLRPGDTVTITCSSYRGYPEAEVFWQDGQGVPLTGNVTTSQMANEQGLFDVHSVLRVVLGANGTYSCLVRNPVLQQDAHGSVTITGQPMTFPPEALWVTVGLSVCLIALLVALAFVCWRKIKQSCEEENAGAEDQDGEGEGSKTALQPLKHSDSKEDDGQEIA
Description: flow cytometry on 293T cells transfected with B7-H3 (4Ig).

Assay [14] addresses T9, human B7-H7, full length, expressed on transfected cells (B7-H7+ cells) (human, UniProt Q9UM44 23-414).
T9 construct: also called HHLA2
T9 sequence: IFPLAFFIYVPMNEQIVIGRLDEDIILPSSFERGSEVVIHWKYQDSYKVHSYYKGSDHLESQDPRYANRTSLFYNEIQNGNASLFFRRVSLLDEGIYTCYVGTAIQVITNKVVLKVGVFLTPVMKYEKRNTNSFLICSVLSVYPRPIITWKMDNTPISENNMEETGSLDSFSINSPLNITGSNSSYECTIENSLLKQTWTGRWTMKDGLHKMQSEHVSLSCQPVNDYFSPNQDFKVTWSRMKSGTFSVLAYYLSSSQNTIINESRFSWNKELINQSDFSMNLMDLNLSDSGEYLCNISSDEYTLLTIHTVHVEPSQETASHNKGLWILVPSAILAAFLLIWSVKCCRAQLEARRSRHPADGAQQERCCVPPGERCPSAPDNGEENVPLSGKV
Kind of assay: flow cytometry on B7-H7 transfected cells (sheet: B7-H7+ 293T; legend: CHO cells); B7-H7CRIg at 10 µg/ml.

T3 sequence (Q9NZQ7 19-290): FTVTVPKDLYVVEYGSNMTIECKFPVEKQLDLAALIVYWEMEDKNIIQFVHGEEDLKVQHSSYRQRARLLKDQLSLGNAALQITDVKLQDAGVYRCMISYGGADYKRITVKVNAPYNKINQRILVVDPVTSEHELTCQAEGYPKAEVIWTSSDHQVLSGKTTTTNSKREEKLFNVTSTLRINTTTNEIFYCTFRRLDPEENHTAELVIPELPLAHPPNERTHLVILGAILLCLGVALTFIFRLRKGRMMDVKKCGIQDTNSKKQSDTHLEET

B1: human B7-2Ig fusion protein (Fc fusion, UniProt P42081 26-245, looked up)
chain: LKIQAYFNETADLPCQFANSQNQSLSELVVFWQDQENLVLNEVYLGKEKFDSVHSKYMGRTSFDSDSWTLRLHNLQIKDKGLYQCIIHHKKPTGMIRIHQMNSELSVLANFSQPEIVPISNITENVYINLTCSSIHGYPEPKKMSVLLRTKNSTIEYDGVMQKSQDNVTELYDVSISLSVSFPDVTSNMTIFCILETDKTRLLSSPFSIELEDPQPPPDH
notes: Bought from R&D Systems; Ig (Fc) part not given
Consider B1, for which the binding result in [1], in assay [2], in assay [3], in assay [4] and in assay [5] was “no binding” throughout.

B2: human B7-H7CRIg fusion protein (Fc fusion)
chain: LSVQQGPNLLQVRQGSQATLVCQVDQATAWERLRVKWTKDGAILCQPYITNGSLSLGVCGPQGRLSWQAPSHLTLQLDPVSLNHSGAYVCWAAVEIPELEEAEGNITRLFVDPDDPTQNRNRIASFPG
notes: also called B7-H67CRIg; not shown: Ig Fc tag; made from pMIgV or pHIgV plasmid
As for B2, the binding result in assay [6], in assay [7], in [8], in assay [9], in [10] and in assay [11] was “no binding (tested: 10 µg/ml)” throughout. Also, the binding result is given as “no binding (tested: 10 µg/ml)” in [12], “no binding (tested: 10 µg/ml)” in assay [13] and “binds” in assay [14].

Source of the values: patent US20120219559A1 (Johns Hopkins, published 2012).
